Test: yeast display, Sf9 membrane polyspecificity reagent, FACS + sequencing; frameworks hold sequencing errors
Outline: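 Synthetic nanobody libraries on Saccharomyces cerevisiae BJ5465 were galactose-induced for 36–48 hours, stained 1 hour at 4 °C with 10% biotinylated, detergent-solubilized Sf9 membrane reagent and enriched on streptavidin microbeads. FACS then separated cells into low and high (top ~1%) gates by anti-HA (expression) and streptavidin (reagent binding) fluorescence. Genes were colony-PCR amplified, MiSeq 2 × 250 sequenced and CDR-length filtered. A clone's polyreactivity label is that of its gate of origin.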

Question: For “QVQHVESGRGLVQAGGSLRLSCAASGGTFNRYAMGWYRQAPGKERELVAAITSSGGSTYYADSVKGRFTISRDNAMNTVYLHMNSLNPEDTAVYYCNAPGFRRLWGLGYDYWGQGTQVTVSS”, which “polyreactivity (PSR sort gate)” value is on record?
Answer: high polyreactivity

Question: Which “polyreactivity (PSR sort gate)” value does the source give for “QVQHVESGRGLVQAGGSLRLSCAASGRISYYYAMGWSRQAPGKEMELVAAITNVGGTYYADSVKGRFTISRDNAKNTVYLQMNSLKQEDTAVFYCAKDFPARHNYWYSSRFFDYWGQGTQGTVSS” here?
Answer: low polyreactivity

Question: For “QVQHVESGRGLVQAGGSLRLSCAAYGRIPYKAMGWYKQAPGKERELVAAISRSGTRTYYADSVKGRYTISRDNAKNTVYLQMISLKPQDTAVYYCAAPVSGYSSDYWGQGTQVTVSS”, which “polyreactivity (PSR sort gate)” value is on record?
Answer: high polyreactivity

Question: For “QVQHVESGVGLVQAGGRLRLSCAASGRTFSSNAMGWYRKAPGKERELVAAISSSGGRTYYADSVKGRFTISRDNAKNTVYLDMNSLKQEDTAVYYCAVVYFPIWASYPYWWEYDYWGHGTQVTVSS”, which “polyreactivity (PSR sort gate)” value is on record?
Answer: high polyreactivity

Question: With “QVQHVESGVGLVQAGGSLRLSCAASGFTFGWYAMGWYRQAPGKERELVASISWSGSTTYYADSVKGRFTISRDIAKNTVYLQMNSLKPEDTAVYYCNARRSYVRNDFDYWGQGTQVTVSS” as the sequence, how does the “polyreactivity (PSR sort gate)” value read?
Answer: high polyreactivity

Question: Which “polyreactivity (PSR sort gate)” value does the source give for “QVQHVESGVGLVQAGGSLRLSCAASGITFLDTVLGWYRHAPAKEWELVADINSIGTSTSYADSVKGRFTISRDNAKNTVYLQMISLKPEDTADYYCAATSYARLAYYYGGQGTQVTVSS” here?
Answer: low polyreactivity

Question: For “QVQHVESGVGLVQAGGSLRLSCASSGLTFQYYSMGWYRQAPGKERELVAAISRRGGSTYYADSVKGRFTISRDNAKNTVYLQMNSLKPEDTAVYYCARYSYRGTNVRYDYWGQGTQVTVSS”, which “polyreactivity (PSR sort gate)” value is on record?
Answer: high polyreactivity

Question: With “QVQHVESRGGLDPAGGSLRLSCAASGRIFRGNAMGWSSQATGKERELVASITWRGTSTYYADSVKGRFTISRDIAMNTVYLQMNSLKPEDTAVYYCNAVTQTRGYYWGQGTQVTVSS” as the sequence, how does the “polyreactivity (PSR sort gate)” value read?
Answer: high polyreactivity

Question: With “QVQHVESRGGLVQAGGSLRLSCAASGNTFWYNAMGWYRQAPGKERELVAAITTSDFGTYYADSVKGRFTISRDNAKNTVYLQMNSLKPEDTAVYYCAAEVYTQRPYYYPAYDYWGQGTQVTVSS” as the sequence, how does the “polyreactivity (PSR sort gate)” value read?
Answer: high polyreactivity

Question: With “QVQHVESVGGLDQAGGSLRLSSAASGRTFYLYAMGWYRQATGKEREFVADINSSGGSTYYADSVKGRFTISRDNAKNTVYLQMNSLKPEDTAVYYCAAYPIPRGRDYWGQGTQVTVSS” as the sequence, how does the “polyreactivity (PSR sort gate)” value read?
Answer: low polyreactivity

Question: For “QVQHVESVGGLDQAGRSLRLSCAASGSTFTPYAMGWYRQAPGKESELVAGITGNGGSTRYADSVKGRFTISRDNAKKTVYLQMNSLKPEDTAVYYCAARWTRQRYRTSYYSWGQGTQVTVSS”, which “polyreactivity (PSR sort gate)” value is on record?
Answer: high polyreactivity

Question: Which “polyreactivity (PSR sort gate)” value does the source give for “QVQHVESVGGLLQAGCSLRLSCAPSGRIFGENAIGWYRQAPGKEREFLAVISISDASTYYADSVKGRFTISRDNAKNTGYLQMNSLKPDDTAVYYCAADLTDFLYVASDYWGQGTQVTVSS” here?
Answer: low polyreactivity

Question: With “QVQHVESVGGLVQAGGSLPLSCDASGSIFGPNAMGWYRQAPGKESELVAAISGSGGSTYYADSVKGRFTISRDNAKNTVYLQMNSLKPEATAVYYCAADLDGTLSVYDYHTTGDDYWGQGTQVTVSS” as the sequence, how does the “polyreactivity (PSR sort gate)” value read?
Answer: low polyreactivity

Question: For “QVQHVESVGGLVQAGGSLRLSCAASGFIFRRYVMGWNRQAPGKERELVAAISYGGGSTYYADSVKGRFTISRDNAKNTVYLQMNCLKPEDTAVYYCNAVSYNLAAYEYWGQGTQVTVSS”, which “polyreactivity (PSR sort gate)” value is on record?
Answer: high polyreactivity

Question: With “QVQHVESVGGLVQAGGSLRLSCAASGFISDWYAMGWYRQAPGKERELVATIDWIGGSTYADSVKGRFTISRDNAKNTVYLQMNSLKPEDTAVYYCAADSYFIAWYGAHYAYDYWGQGTQVTVSS” as the sequence, how does the “polyreactivity (PSR sort gate)” value read?
Answer: low polyreactivity

Question: With “QVQHVESVGGLVQAGGSLRLSCAASGSIFDDYAMGWYRPAPGKERELVAAISSSGTSTYYADSVKGRFTISRDNAKNTVYLQMNSLKPEDTAVYYCAARSAILKSGYLMDYWGQGTQVTVSS” as the sequence, how does the “polyreactivity (PSR sort gate)” value read?
Answer: low polyreactivity

Question: With “QVQHVETGGGLVQAGCSLRLSCAASGRTFLWNAMGWYRQERGNERELGARINLSGGRTYYADSVKGRFTISRDNAKNSVYLQMNSLKPEETAVYYCAAPVVRYRRDSWGQGTQVTVSS” as the sequence, how does the “polyreactivity (PSR sort gate)” value read?
Answer: low polyreactivity

Question: With “QVQHVQSGGGLVQAGGSLRLSCAAAGFIYNNAMGWYRQAPGKETELVATISTSGTDTYYADSVKGRFTISRDNAKNTVYLQMNSLKPEDTAVYYCNADTEIYDSYSSYWTRYEYWGQGTQVTVSS” as the sequence, how does the “polyreactivity (PSR sort gate)” value read?
Answer: low polyreactivity

Question: Which “polyreactivity (PSR sort gate)” value does the source give for “QVQIEESGGGLVQAGGSLPLSCAASGTIFKYYTRGWYRLAPGKERELFAAISGSGGTTYYADSVKGRFTISRDNAKNTVYLQMNSLKPEDTAVYYCATAYYRAFRGDYWGQGTQVTVSS” here?
Answer: high polyreactivity

Question: Which “polyreactivity (PSR sort gate)” value does the source give for “QVQIEESGGGLVQAGGSLRLSCAASGSTFGYYAMGWYRQAPGKERELVAAISRGGSTYYADSVKGRFTISRDIAKYTVYLQMHSLKPEDTAVYYCNAVRYLEYDWGQGTQVTVSS” here?
Answer: high polyreactivity

Question: Which “polyreactivity (PSR sort gate)” value does the source give for “QVQILESGGGLVQAGVSLRLSCAPSGSTFSRNAMAWYRQAPGKERELVAAISSSGGRTYYAESVKVRFTISRDNAKNTVYLQMNSLTPEDTAVYYCAAAFSLGMYWGQGTLVTVSS” here?
Answer: high polyreactivity

Question: For “QVQIVDSGGGLVHAGGSLRLSCADSGSIFSGNAKAWYIQATGKERELVAAISRSGGSTYYADSVKGRFTISRDNAKNTVYLQMNSLKPEDTAVYYCNAGRYRAGGWGVGEGYWGQGTQVTVSS”, which “polyreactivity (PSR sort gate)” value is on record?
Answer: high polyreactivity

Question: For “QVQIVDSGGGLVQAGGSLRLSCDASGRLISRKAMGWYRQAPGKERELVAAITSGGSTYYADSVKGRFTISRDNAKNTVYLQMNSLKPEDTAVYYCAAVYRGVDSRWYCYDYWGQGTQVTVSS”, which “polyreactivity (PSR sort gate)” value is on record?
Answer: low polyreactivity

Question: For “QVQIVESGAGLVQAGGSLRISCAASGRIFRYYAMGWYRQAPGKERELVAAITVSGGSKYYADSVKGRFTISRDNAKNTVYLQMNSLKPEDTAVYYCAKALRSYLFIHFDYWVQGTQVTVSS”, which “polyreactivity (PSR sort gate)” value is on record?
Answer: low polyreactivity

Question: Which “polyreactivity (PSR sort gate)” value does the source give for “QVQIVESGGALYQAGGSLRLICAASGSTFSQYAMGWYRQEPGKERELLPTINSGGSTNYADSVKGRFTISRDNAMNTVYLQMNSLKPEETAVYYCAAREDLYLYYNGQRVQYDYWGQGTQVTVSS” here?
Answer: low polyreactivity

Question: Which “polyreactivity (PSR sort gate)” value does the source give for “QVQIVESGGCLVQAGGSLRLSCAASGRTFGRNAMGWYRQAPGKERELVAGISIGGGTTYYADSVKGRFTISRDNAKNTVYLQMNSLKPEDTAVYYCAARSWSYLHRYGYWGQGTQVTVSS” here?
Answer: high polyreactivity

Question: With “QVQIVESGGGLLQAGGSLPLTCAASGSTFDDNAQGWYRLAPGKERELVAAISYSGGSTYYADSVKGRFTISRDNAKNTVYLQMNSLKPEDPAVYYCAADDLYTDYETWWRRGDYWGQGTQVTVSS” as the sequence, how does the “polyreactivity (PSR sort gate)” value read?
Answer: low polyreactivity

Question: Which “polyreactivity (PSR sort gate)” value does the source give for “QVQIVESGGGLVQAGASLSLSCAASGSIFGTNAMGWYRQAPGKERELVAAISSAGASTYYADSVKGRFTISRDNAKNTVYLQMNSLKPEDTAVYYCARGYTYQSSSFYYWGQGTQVTVSS” here?
Answer: low polyreactivity

Question: Which “polyreactivity (PSR sort gate)” value does the source give for “QVQIVESGGGLVQAGGNLRLSCAASGFIFTRYAMGWYRQAPGKERELVAAISTSVDRTYYADSVKGRFSISRDNAKNTVYLQMNSLKPEDTAVYYCAVVRPRSVGRYDYWGQGTQVTVSS” here?
Answer: high polyreactivity

Question: With “QVQIVESGGGLVQAGGSLPLSCDASGITFERYDMGWYRQAPGKERELGAAISTTGGRTYYADSVKGRFTISRDNAKNSVYLQMNSLKPEDTAVYYCAARYTTRRRYDYWGQGTQVTVSS” as the sequence, how does the “polyreactivity (PSR sort gate)” value read?
Answer: high polyreactivity

Question: For “QVQIVESGGGLVQAGGSLRISCAASGFIFNRYAMGWYRQAPGTERELVADITGGSTYFADSVKGRFTISRDNAKNTVYLLMKSLKPEDTAVYYCAADVLRISTLLFRGPGFDYWGQGTQVTVSS”, which “polyreactivity (PSR sort gate)” value is on record?
Answer: low polyreactivity

Question: Which “polyreactivity (PSR sort gate)” value does the source give for “QVQIVESGGGLVQAGGSLRLSCAASGFIFDFYTMGWYRQAPGKERELVAAITWSGDSTYYADSVKGRFTISRDNAKNTVYLQMNSLKPEDTGVYYCAADWWGVWYFDYDYWGQGTQVTVSS” here?
Answer: low polyreactivity

Question: With “QVQIVESGGGLVQAGGSLRLSCAASGFIFDYNAMGWYRQAPGKERELVAAISYSGGRTSYADSVKGRFTISRDNAKNTVYLQMNSLKPEDTAVYYCAKDNYVDFGGYYYPRMYYWGQGTQVTVSS” as the sequence, how does the “polyreactivity (PSR sort gate)” value read?
Answer: high polyreactivity

Question: Which “polyreactivity (PSR sort gate)” value does the source give for “QVQIVESGGGLVQAGGSLRLSCAASGFIFNIYAMGWYRQAPGKERELVAAITFSGGSTYYADSVKGRFTISRDNAKNTVYFQMNSLKPEDTAVYYCAADYLSEYTTYDYWGQGTQVTVSS” here?
Answer: low polyreactivity

Question: For “QVQIVESGGGLVQAGGSLRLSCAASGFTFGVYAMGWYRQAPGKERELVAAISVSGGRTYYADSVKGRFTISRDNAKNTVYLQMNSLKPEDTAVYYCAADLGLKTSSRRTSMYYWGQGTQVTVSS”, which “polyreactivity (PSR sort gate)” value is on record?
Answer: high polyreactivity

Question: Which “polyreactivity (PSR sort gate)” value does the source give for “QVQIVESGGGLVQAGGSLRLSCAASGFTLHRNAMGWYRQAPGKERELVANISWTGGSTYYADSVKGRFTISRDNAKNTVYLQMNSLKPEDTAVYYCAARGHWSIYGYYYLGATAFGYWGQGTQVTVSS” here?
Answer: low polyreactivity

Question: With “QVQIVESGGGLVQAGGSLRLSCAASGGTFLPYAMGSYRQAPGKERELVATITLIGDSTYYADSVKGRFTISRDNAKNTVYLQMNSLKPEDTAVYYCAARPVTSYAYGSWGQGSQVTVSS” as the sequence, how does the “polyreactivity (PSR sort gate)” value read?
Answer: low polyreactivity

Question: With “QVQIVESGGGLVQAGGSLRLSCAASGIIFYYYAMGWYRPAPGKERELVAGISYSGGSTYADSVKGLFTISRDNAKNTVYLQMNSLKPEDTAVYDCAADYDYGGHWYDYWGQGTQVTVSS” as the sequence, how does the “polyreactivity (PSR sort gate)” value read?
Answer: low polyreactivity

Question: Which “polyreactivity (PSR sort gate)” value does the source give for “QVQIVESGGGLVQAGGSLRLSCAASGITFVGNAMVWYRQAPGKERELVAVISRGDSTNYADSVKGLFTISRDNAKNTVYLQMNSLKPEDTAVYYCAADGSRAGQEGNDYWGQGTQVSVSS” here?
Answer: low polyreactivity

Question: With “QVQIVESGGGLVQAGGSLRLSCAASGNIFDRYAMGWYRQAPGKERELVAGITWSGGSTYYADSVKGRFTISRDNAKNTVYLQMNSLKPDDTAVYYCGQANYYWGLGTQVTVSS” as the sequence, how does the “polyreactivity (PSR sort gate)” value read?
Answer: low polyreactivity

Question: With “QVQIVESGGGLVQAGGSLRLSCAASGRIFDGYAMGWYRQAPGKERELVAAISLSDGSTYYADSVKGRFTISRDHAKNTVYLQMNILKPEDTAVYYCAARVQHYLATDDYWGQGTQVTVSS” as the sequence, how does the “polyreactivity (PSR sort gate)” value read?
Answer: low polyreactivity

Question: Which “polyreactivity (PSR sort gate)” value does the source give for “QVQIVESGGGLVQAGGSLRLSCAASGRIFGFNAMAWYRQAPGKERELVAAISWSSGRTYYADSVKGRFTISRDNAKNTVYLQMNSLKPEDTAVYYCAADQWGGGDDYWGQGTQVTVSS” here?
Answer: high polyreactivity

Question: For “QVQIVESGGGLVQAGGSLRLSCAASGRIFVVNDMGWYRPATGKERELVAAINSGGRTNYADSVKGRFTISRDNAKNTVDLQMNSLKREATAVYFCNAKRTGPWFLHVPVYYWGQGTQVTVSS”, which “polyreactivity (PSR sort gate)” value is on record?
Answer: low polyreactivity

Reference: the nanobody polyreactivity screen of Harvey et al. (2022)
